Measurements from patent publication US20220229068A1, “DETECTION OF PROTEIN TO PROTEIN INTERACTIONS” (THE GOVERNING COUNCIL OF THE UNIVERSITY OF TORONTO, priority 2019, published 2022).

Target: T1, FRB/FKBP1A interaction (Homo sapiens, UniProt P42345+P62942)
T1 construct: expressed in transfected cells; host or cells: HEK 293 (also HeLa, PC9)
Assay type: cell-based
Conditions: FRB-IN/IC-FKBP1A in HEK 293, Western blot
Protocol: Cell culture and treatment. […] These cells were grown in DMEM supplemented with 10% fetal calf serum (Life Technologies). […] For ELISA assay, cells were seeded in 96 well (Sarstedt AG & Co) or 384 well plates (Greiner Bio-One) with 15,000 (96 well) or 5,000 (384 well) cells per well. Cells were transfected with various plasmids with polyethylenimine (PEI) Max (Polysciences) [40]. Expression in HEK 293 Flp-In T-Rex cells was induced by treating the cells with tetracycline (1 μg/ml) for 6-16 hrs. […] Stable cell lines were created according to the manual of Flp-In T-REx (Invitrogen). Briefly, plasmid containing both bait and prey DNA and pOG44 plasmid (1:10 ratio) were cotransfected into HEK 293 Flp-In T-Rex cells.
Western blot analysis and immunoprecipitation. Cells were lysed in buffer H (Triton X 100 1%, β-glycerophosphate pH7.3 50 mM, EGTA 1.5 mM, EDTA 1 mM, orthovanadate 0.1 mM, DTT 1 mM supplemented with protease inhibitors (Roche)). After centrifugation at 21,000×g for 10 min, the supernatants were mixed with Laemmli sample buffer, boiled at 95° C. for 3-5 min and subjected to Western blot analysis. For immunoprecipitations, supernatants (0.3 ml) were incubated with antibodies at 4° C. with rotation for one hour, followed by another hour of incubation with protein G sepharose beads (GE Healthcare). […]

T1 sequence (P42345 with tags, fused parts or gaps): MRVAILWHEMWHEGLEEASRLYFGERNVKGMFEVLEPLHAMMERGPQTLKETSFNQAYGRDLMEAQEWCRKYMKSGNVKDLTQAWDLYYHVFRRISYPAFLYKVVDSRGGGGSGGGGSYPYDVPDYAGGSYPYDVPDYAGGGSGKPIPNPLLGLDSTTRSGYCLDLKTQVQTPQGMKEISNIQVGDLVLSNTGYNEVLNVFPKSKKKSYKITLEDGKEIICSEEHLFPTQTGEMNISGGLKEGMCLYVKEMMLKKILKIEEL
T1 sequence (P62942 with tags, fused parts or gaps): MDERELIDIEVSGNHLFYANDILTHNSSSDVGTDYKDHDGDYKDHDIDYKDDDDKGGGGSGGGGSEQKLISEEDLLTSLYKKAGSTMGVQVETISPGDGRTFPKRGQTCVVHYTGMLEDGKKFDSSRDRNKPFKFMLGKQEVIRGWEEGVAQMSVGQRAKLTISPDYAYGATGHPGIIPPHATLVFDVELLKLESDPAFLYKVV

Molecule | self-association / splicing in the absence of rapamycin
WT form of GP41-1: natural GP41-1 split intein, split at C37 (SEQ ID NO: 1, 2) (protein, Synthetic GP41-1 IN (WT); Synthetic GP41-1 IC (WT)) chain 1: CLDLKTQVQTPQGMKEISNIQVGDLVLSNTGYNEVLNVFPKSKKKSYKITLEDGKEIICSEEHLFPTQTGEMNISGGLKEGMCLYVKE chain 2: MMLKKILKIEELDERELIDIEVSGNHLFYANDILTHN | relatively high level of FRB/FKBP1A splicing even in the absence of rapamycin treatment
C25 split intein: IC aa13-aa37 of WT IC; IN aa1-aa88 of WT IN + aa1-aa12 of WT IC (SEQ ID NO: 3, 4) (protein, Synthetic GP41-1 IN (C25); Synthetic GP41-1 IC (C25)) chain 1: CLDLKTQVQTPQGMKEISNIQVGDLVLSNTGYNEVLNVFPKSKKKSYKITLEDGKEIICSEEHLFPTQTGEMNISGGLKEGMCLYVKEMMLKKILKIEEL chain 2: DERELIDIEVSGNHLFYANDILTHN | minimal self-association
